The values below come from patent publication US20110165265A1, “TRAIL VARIANTS FOR TREATING CANCER” (FUNDACIÓ GENÒMICA (CRG), priority 2007, published 2011).

“Also recorded” adds a separate entry of the source.

For one series, the target named is T1, DR5 (Homo sapiens, UniProt O14763).
T1 construct: Effect of soluble recombinant DR5-Ig (sDR5) on apoptosis induction
The note with it: surface plasmon resonance; read-out: binding affinity Kd for DR5; cited from earlier work.

Series [1] concerns A2780 cells. Nature of the series: Caspase-3 activity and acridine orange apoptosis assays in A2780. Type of series: cell-based, human. The note with it: for effect of DcR2 blocking antibody on apoptosis induction: A2780; for effect of DR5 siRNA on induced apoptosis: A2780, also with cisplatin.
The subject of another series is SW948 cells. Nature of the series: Cell survival / sensitivity of SW948. Type of series: cell-based.
For another series, the system named is ML-1 cells. Nature of the series: Cytotoxicity in ML-1 cells. The series is classed as cell-based. The method, then: Colo205 and ML-1 cells were then treated with increasing concentrations of TRAIL or the DR5-specific variants D269H, D269HE195R, and D269H/T214R, and their cytotoxic potential was measured with a 3-(4,5-dimethylthiazol-2-yl)-2,5-diphenyl tetrazolium bromide (MTT) assay.

For series [2], the system named is human umbilical vein endothelial cells (HUVEC). Nature of the series: Viability of HUVEC. The series is classed as cell-based. To be noted: for cell viability: 50-500 ng/ml, 24 h, MTT. The method, then: Human dermal fibroblasts were grown in low glucose DMEM (Sigma) supplemented with 10% fetal calf serum, 50 U/ml penicillin and […] streptomycin; human umbilical vein endothelial cells (HUVEC, PromoCell) were cultured in Endothelial Cell Growth Medium with SupplementMix (PromoCell). Fibroblasts and HUVEC cells were seeded at 1.3×10^5 cells/ml 24 h before treatment with increasing concentrations of TRAIL and DR5-selective variants, D269H and D269HE195R (50-500 ng/ml) for 24 h and cell viability was measured using MTT assay, wherein 200 μg/ml MTT (3-(4,5-dimethylthiazo1-2-yl)-2,5-diphenyl-tetrazolium bromide) was added to control and treated cells and incubated for 3 h at 37° C. The reaction was stopped and the purple formazan precipitate formed was dissolved using dimethyl sulfoxide (DMSO) and the colour intensity was measured at 550 nm on a Wallac multilabel counter. The control value corresponding to untreated cells was taken as 100% and the viability of treated samples was expressed as a percentage of the control. (FIG. 15).

The next series addresses T2, DcR1 (Homo sapiens, UniProt O14798).
T2 construct: soluble, recombinant DcR1-Ig (sDcR1) and DcR2-Ig (sDcR2); purchased R&D Systems
T2 sequence (O14798 26-236 limits assumed): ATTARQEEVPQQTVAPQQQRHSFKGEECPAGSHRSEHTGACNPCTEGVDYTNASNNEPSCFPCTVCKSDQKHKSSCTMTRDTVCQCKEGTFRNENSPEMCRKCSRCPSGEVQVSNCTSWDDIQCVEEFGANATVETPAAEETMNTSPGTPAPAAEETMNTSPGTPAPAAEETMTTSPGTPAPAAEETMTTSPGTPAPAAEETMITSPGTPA
Nature of the series: SPR receptor binding assay, immobilized DcR1-Ig. The note with it: 0.1-250 nM ligand. The method, then:
(§1) The response data (in response units) as a function of TRAIL concentration were fitted using a four parameter equation to give an apparent pre-steady state affinity constant.
(§2) Binding experiments were performed at 37° C. using a surface plasmon resonance-based biosensor (Biacore 3000, Biacore AB, Uppsala, Sweden) as previously described^10. In short, DcR1-Ig and DcR2-Ig receptor chimeras (R&D Systems) were captured at a 35 μl/min flow rate using a protein A (Sigma) modified CM5 sensor chip (Biacore). Receptor chimeras were captured at a level of ˜500-800 response units (RU). […] Binding of ligands to the receptors was monitored in real-time. Between injections the protein A sensor surface was regenerated using a 30s pulse of 0.1 M glycine 0.5 M NaCl pH 3. Due to the very slow dissociation of the TRAIL-receptor complex, only pre-steady state binding data could be obtained. In order to obtain data that represent proper high-affinity complex formation, the response at each concentration was recorded 30 sec after the end of the injection. The response data (in response units) as a function of TRAIL concentration were fitted using a four parameter equation to give an apparent pre-steady state affinity constant.
(§3) Affinity of the ligands was assessed by measuring receptor binding in a concentration range of 0.1-250 nM.

Another series relates to Colo205 cells. Nature of the series: Annexin V apoptosis assay in Colo205. The series is classed as cell-based, human. The note with it: Colo205, 3 h. The method, then:
Colo205 cells express all four TRAIL receptors, and are sensitive to TRAIL-induced apoptosis, which is mediated predominantly via DRS in these cells^10. […] Induction of cell death was measured by Annexin V assay, wherein externalization of phosphatidyl serine (PS) on the plasma membrane of apoptotic cells was detected using Annexin V-FITC (IQ Corporation, Groningen, The Netherlands). Briefly, cells were trypsinized and were then collected by centrifugation at 400 g, washed in ice-cold calcium buffer (10 mM HEPES/NaOH, pH 7.4, 140 mM NaCl, 2.5 mM CaCl2) and incubated with Annexin V-FITC for 15 min in the dark prior to acquisition on a FACSCalibur flow cytometer (Becton Dickinson).

A further series relates to VACO-235 and VACO330. Nature of the series: Sensitivity of colon adenoma cell lines. The note with it: 96 hours. Type of series: cell-based, human. The method, then:
The colon adenoma cell lines VACO-235 and VACO330 were treated with TRAIL or D269H/E195R for 96 hours. […] Sensitivity could be further enhanced using TRAIL or D269H/E195R in combination with the cdk inhibitor roscovitine.

The target in the next series is T3, DcR2 (Homo sapiens, UniProt Q9UBN6).
T3 construct: soluble, recombinant DcR1-Ig (sDcR1) and DcR2-Ig (sDcR2); purchased R&D Systems
T3 sequence (Q9UBN6 56-211 limits assumed): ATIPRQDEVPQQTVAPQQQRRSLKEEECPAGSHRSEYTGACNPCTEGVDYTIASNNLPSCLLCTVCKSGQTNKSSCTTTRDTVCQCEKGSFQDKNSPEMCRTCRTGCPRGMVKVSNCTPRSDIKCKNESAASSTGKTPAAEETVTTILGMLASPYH
In words: SPR receptor binding assay, immobilized DcR2-Ig. To be noted: 0.1-250 nM ligand. The method, then: as §1, §2, §3

For series [3], the system named is A2780 cells. In words: Sensitivity of ovarian carcinoma cell line A2780 (Example 4). The series is classed as cell-based, human. The text has this: The ovarian carcinoma cell line A2780 expresses very low levels of DR4, and high levels of the other three membrane-bound TRAIL receptors. Sensitivity of these cells to wild type TRAIL and the DR5-specific variant was compared initially as a single agent. The sensitivity pattern is illustrated in the Table 6, with + indicating minimally sensitive, ++ moderately sensitive and +++ very sensitive.

The target of a further series is T4, DR4 (Homo sapiens, UniProt O00220).
T4 construct: the more commonly used dimeric TRAIL-receptor-IgG Fc chimeric constructs
In words: SPR binding to immobilized DR4-Ig. The note with it: pre-steady state SPR. The text has this: In other experiments dissociation was continued for periods of up to 2,000 sec, with similar results. As a consequence it is essentially impossible to obtain a dissociation rate constant and thus to calculate the affinity from the association and dissociation rate constants. We therefore chose to use the pre-steady state approach to analyse the data^10. […] With these two changes this variant has become an TRAIL variant that binds to DR5 with high selectivity and affinity.

T4 sequence (O00220 24-239 limits assumed): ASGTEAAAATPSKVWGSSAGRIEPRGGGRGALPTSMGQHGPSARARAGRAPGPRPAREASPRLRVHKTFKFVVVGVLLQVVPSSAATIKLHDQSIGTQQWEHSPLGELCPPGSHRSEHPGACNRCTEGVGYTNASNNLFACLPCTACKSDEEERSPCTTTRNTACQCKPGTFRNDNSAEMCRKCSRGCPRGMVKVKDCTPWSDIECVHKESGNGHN

B1: wtTRAIL: wild-type soluble recombinant human TRAIL, amino acids 114-281 (SEQ ID NO: 3) (protein, listed as Homo sapiens)
chain: MVRRGRVAAHTGTRGRSNTSSNSKNKAGRKNSWSSRSGHSSNHRNGVHKGYYYSTYRKNTKNDKMVYYKYTSYDMKSARNSCWSKDAYGYSYGGKNDRVSVTNHDMDHASGAVG
modifications: TRAIL 114-281
In the case of B1, the equilibrium dissociation constant (Kd) in the series with DR5 was 7.2 nM. Moreover, in the series on A2780 cells [1], the “effect of DcR2 blocking antibody on apoptosis induction” value is “did not enhance apoptosis induction” and the “effect of DR5 siRNA on induced apoptosis” value is given as “completely protected”. Besides, in the series on SW948 cells, the “cell viability, single agent” value is reported as “greater loss in cell viability compared to that of the DR5 mutant at higher concentrations”; the “effect of 5-FU on sensitivity” value was “enhanced sensitivity”; the “sensitivity, single agent comparison” value is recorded as “higher sensitivity”. Further, the cell death induction result with ML-1 cells is recorded as “able to induce cell death”. Besides, the “cytotoxic effects on noncancerous cells” value in series [2] (100 ng/ml) is “no cytotoxic effects were observed”. Also, the cell viability entry in series [2] is on record as “Neither wtTRAIL nor the DR5-selective variants had any effect; also recorded: did not result in a decrease in cell viability”.

B2: D269HE195R: rhTRAIL (114-281) carrying mutations D269H and E195R; DR5-selective TRAIL variant (protein)
chain: MVRERGPQRVAAHITGTRGRSNTLSSPNSKNEKALGRKINSWESSRSGHSFLSNLHLRNGELVIHEKGFYYIYSQTYFRFQERIKENTKNDKQMVQYIYKYTSYPDPILLMKSARNSCWSKDAEYGLYSIYQGGIFELKENDRIFVSVTNEHLIDMHHEASFFGAFLVG
As for B2, in the series on A2780 cells [1], the “effect of DcR2 blocking antibody on apoptosis induction” value is listed as “did not enhance apoptosis induction” and the “effect of DR5 siRNA on induced apoptosis” value is given as “completely protected”. In the series on SW948 cells, the “cell viability, single agent” value is given as “decreased cell viability” and the “effect of Aspirin” value was “enhanced the effect”. The “binding towards DcR1, reduction compared to wtTRAIL” value with DcR1 is on record as “approximately 20 fold”. The cell death induction result in the series with ML-1 cells is given as “only TRAIL was able to induce cell death; also recorded: hardly any apoptosis”. In the series with Colo205 cells, the “increase in apoptosis / cytotoxic potential compared to wtTRAIL (based on IC50)” value was 2.7-4.2 fold. In addition, the “increase in apoptosis / cytotoxic potential compared to wtTRAIL (based on IC50)” value with Colo205 cells (listed as D269H/E195R) is 3.3-4.2 fold. For the same molecule, the cell viability result in series [2] was “did not result in a decrease in cell viability”. Besides, the “sensitivity of adenoma cell lines” value in the series on VACO-235 and VACO330 is “more sensitive to D269H/E195R”. The “binding toward DcR2 compared to wtTRAIL” value with DcR2 was “reduced”. In the series on A2780 cells [3], the “efficacy in combination with Cisplatin” value is “higher efficacy than wtTRAIL” and the “sensitivity compared to wild type TRAIL, single agent” value is on record as “increased sensitivity”. For the same molecule, the “affinity for DR4-Ig compared to wtTRAIL” value in the series with DR4 is given as “almost abolished”.
